Laboratory results as given in patent US10941182 (Amgen, dated 2021).
Starred links: 1 amine or outer side, 2 acyl side, 3 side chain; linkers in the order of their positions; H or OH if unused. Non-standard residues stand in square brackets, D forms with d. *: point of attachment. dBip = N[C@H](Cc1ccc(-c2ccccc2)cc1)C(=O)O; Oic = O=C(O)[C@@H]1C[C@@H]2CCCC[C@@H]2N1; Phe(4-I) = N[C@@H](Cc1ccc(I)cc1)C(=O)O; γGlu = O=C(O)[C@H](CCC(=O)[*:2])N[*:1]; d1Nal = N[C@H](Cc1cccc2ccccc12)C(=O)O; Tridecanoyl = CCCCCCCCCCCCC(=O)*; hArg = N=C(N)NCCCC[C@H](N)C(=O)O; NMeL = CN[C@@H](CC(C)C)C(=O)O; Tle = CC(C)(C)[C@H](N)C(=O)O; AEEA = NCCOCCOCC(=O)O; BLeu = β-leucine; βAla = NCCC(=O)O

T1: rat APJ receptor (rat, UniProt Q9JHG3 1-377)
T1 sequence (looked up): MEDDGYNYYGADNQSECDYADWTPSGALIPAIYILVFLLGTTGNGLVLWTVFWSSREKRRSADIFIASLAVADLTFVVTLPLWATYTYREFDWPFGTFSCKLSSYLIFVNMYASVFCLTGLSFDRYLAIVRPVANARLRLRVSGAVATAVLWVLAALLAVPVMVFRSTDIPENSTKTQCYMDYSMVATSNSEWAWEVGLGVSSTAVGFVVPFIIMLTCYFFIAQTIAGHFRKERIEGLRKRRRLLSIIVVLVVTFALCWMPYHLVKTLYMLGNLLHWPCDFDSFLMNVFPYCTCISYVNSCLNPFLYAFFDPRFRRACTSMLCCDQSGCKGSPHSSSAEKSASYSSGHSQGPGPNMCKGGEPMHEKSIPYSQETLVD

T2: human APJ receptor (human, UniProt P35414 1-380)
T2 sequence (looked up): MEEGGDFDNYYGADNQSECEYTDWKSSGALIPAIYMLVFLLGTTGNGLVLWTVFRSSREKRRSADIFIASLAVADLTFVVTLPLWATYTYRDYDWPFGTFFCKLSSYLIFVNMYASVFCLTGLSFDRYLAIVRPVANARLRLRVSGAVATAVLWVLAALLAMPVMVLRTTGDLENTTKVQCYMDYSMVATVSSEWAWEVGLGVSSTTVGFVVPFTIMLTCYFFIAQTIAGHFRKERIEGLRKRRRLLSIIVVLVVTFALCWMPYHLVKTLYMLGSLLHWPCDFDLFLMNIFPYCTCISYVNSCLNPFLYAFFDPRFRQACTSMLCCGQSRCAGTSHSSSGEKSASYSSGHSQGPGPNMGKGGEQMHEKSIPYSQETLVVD


How the values were obtained:
[1] = target: T1, rat APJ receptor; experiment: cell-based or functional assay
[2] = target: T2, human APJ receptor; experiment: cell-based or functional assay

Row | EC50 Rat APJ Receptor [1] | EC50 Human APJ Receptor [2] | Binder
1 | 1.17 nM | 0.647 nM | Tridecanoyl-[γGlu][AEEA][AEEA][dR]QRP[hArg][NMeL]SHKG[Oic][Phe(4-I)]P[dBip]-OH (SMILES CCCCCCCCCCCCC(=O)N[C@@H](CCC(=O)NCCOCCOCC(=O)NCCOCCOCC(=O)N[C@H](CCCNC(=N)N)C(=O)N[C@@H](CCC(N)=O)C(=O)N[C@@H](CCCNC(=N)N)C(=O)N1CCC[C@H]1C(=O)N[C@@H](CCCCNC(=N)N)C(=O)N(C)[C@@H](CC(C)C)C(=O)N[C@@H](CO)C(=O)N[C@@H](Cc1c[nH]cn1)C(=O)N[C@@H](CCCCN)C(=O)NCC(=O)N1[C@H](C(=O)N[C@@H](Cc2ccc(I)cc2)C(=O)N2CCC[C@H]2C(=O)N[C@H](Cc2ccc(-c3ccccc3)cc2)C(=O)O)C[C@@H]2CCCC[C@@H]21)C(=O)O) [apelin polypeptide SEQ ID NO: 213]
2 | 32.4 nM | 8.48 nM | Tridecanoyl-[γGlu][AEEA][AEEA][hArg][dQ][hArg]P[dR][NMeL]SAKG[Oic][Phe(4-I)]P[dBip]-OH (SMILES CCCCCCCCCCCCC(=O)N[C@@H](CCC(=O)NCCOCCOCC(=O)NCCOCCOCC(=O)N[C@@H](CCCCNC(=N)N)C(=O)N[C@H](CCC(N)=O)C(=O)N[C@@H](CCCCNC(=N)N)C(=O)N1CCC[C@H]1C(=O)N[C@H](CCCNC(=N)N)C(=O)N(C)[C@@H](CC(C)C)C(=O)N[C@@H](CO)C(=O)N[C@@H](C)C(=O)N[C@@H](CCCCN)C(=O)NCC(=O)N1[C@H](C(=O)N[C@@H](Cc2ccc(I)cc2)C(=O)N2CCC[C@H]2C(=O)N[C@H](Cc2ccc(-c3ccccc3)cc2)C(=O)O)C[C@@H]2CCCC[C@@H]21)C(=O)O) [apelin polypeptide SEQ ID NO: 199]
3 | 49.6 nM | 8.62 nM | Tridecanoyl-[γGlu][AEEA][AEEA][dR]Q[hArg]P[dR][NMeL]SHKG[Oic][Phe(4-I)]P[d1Nal]-OH (SMILES CCCCCCCCCCCCC(=O)N[C@@H](CCC(=O)NCCOCCOCC(=O)NCCOCCOCC(=O)N[C@H](CCCNC(=N)N)C(=O)N[C@@H](CCC(N)=O)C(=O)N[C@@H](CCCCNC(=N)N)C(=O)N1CCC[C@H]1C(=O)N[C@H](CCCNC(=N)N)C(=O)N(C)[C@@H](CC(C)C)C(=O)N[C@@H](CO)C(=O)N[C@@H](Cc1c[nH]cn1)C(=O)N[C@@H](CCCCN)C(=O)NCC(=O)N1[C@H](C(=O)N[C@@H](Cc2ccc(I)cc2)C(=O)N2CCC[C@H]2C(=O)N[C@H](Cc2cccc3ccccc23)C(=O)O)C[C@@H]2CCCC[C@@H]21)C(=O)O) [apelin polypeptide SEQ ID NO: 155]
4 | 13.7 nM | 1.66 nM | Tridecanoyl-[γGlu][AEEA][AEEA][dR]Q[hArg]P[dR][NMeL]SHKG[Oic][Phe(4-I)][dBip]-OH (SMILES CCCCCCCCCCCCC(=O)N[C@@H](CCC(=O)NCCOCCOCC(=O)NCCOCCOCC(=O)N[C@H](CCCNC(=N)N)C(=O)N[C@@H](CCC(N)=O)C(=O)N[C@@H](CCCCNC(=N)N)C(=O)N1CCC[C@H]1C(=O)N[C@H](CCCNC(=N)N)C(=O)N(C)[C@@H](CC(C)C)C(=O)N[C@@H](CO)C(=O)N[C@@H](Cc1c[nH]cn1)C(=O)N[C@@H](CCCCN)C(=O)NCC(=O)N1[C@H](C(=O)N[C@@H](Cc2ccc(I)cc2)C(=O)N[C@H](Cc2ccc(-c3ccccc3)cc2)C(=O)O)C[C@@H]2CCCC[C@@H]21)C(=O)O) [apelin polypeptide SEQ ID NO: 173]
5 | 27.3 nM | 10 nM | Tridecanoyl-[γGlu][AEEA][AEEA][hArg][dQ][hArg]P[dR][BLeu]SHKG[Oic][Phe(4-I)]P[dBip]-OH [apelin polypeptide SEQ ID NO: 180]
6 | 0.729 nM | 0.375 nM | Ac-[hArg][dR]Q[hArg]P[dR][NMeL]SHKG[Oic][Phe(4-I)]P[dBip]-OH (SMILES CC(=O)N[C@@H](CCCCNC(=N)N)C(=O)N[C@H](CCCNC(=N)N)C(=O)N[C@@H](CCC(N)=O)C(=O)N[C@@H](CCCCNC(=N)N)C(=O)N1CCC[C@H]1C(=O)N[C@H](CCCNC(=N)N)C(=O)N(C)[C@@H](CC(C)C)C(=O)N[C@@H](CO)C(=O)N[C@@H](Cc1c[nH]cn1)C(=O)N[C@@H](CCCCN)C(=O)NCC(=O)N1[C@H](C(=O)N[C@@H](Cc2ccc(I)cc2)C(=O)N2CCC[C@H]2C(=O)N[C@H](Cc2ccc(-c3ccccc3)cc2)C(=O)O)C[C@@H]2CCCC[C@@H]21) [apelin polypeptide SEQ ID NO: 16]
7 | 182 nM | 49.4 nM | Tridecanoyl-[γGlu][AEEA][AEEA][hArg][dQ][hArg]P[dR][NMeL]S[Tle]KG[Oic][Phe(4-I)]P[dBip]-OH (SMILES CCCCCCCCCCCCC(=O)N[C@@H](CCC(=O)NCCOCCOCC(=O)NCCOCCOCC(=O)N[C@@H](CCCCNC(=N)N)C(=O)N[C@H](CCC(N)=O)C(=O)N[C@@H](CCCCNC(=N)N)C(=O)N1CCC[C@H]1C(=O)N[C@H](CCCNC(=N)N)C(=O)N(C)[C@@H](CC(C)C)C(=O)N[C@@H](CO)C(=O)N[C@H](C(=O)N[C@@H](CCCCN)C(=O)NCC(=O)N1[C@H](C(=O)N[C@@H](Cc2ccc(I)cc2)C(=O)N2CCC[C@H]2C(=O)N[C@H](Cc2ccc(-c3ccccc3)cc2)C(=O)O)C[C@@H]2CCCC[C@@H]21)C(C)(C)C)C(=O)O) [apelin polypeptide SEQ ID NO: 201]
8 | 16.5 nM | 3.6 nM | Tridecanoyl-[γGlu][AEEA][AEEA][hArg][dQ][hArg]P[dR][NMeL]SHKG[Oic][Phe(4-I)][dBip]-OH (SMILES CCCCCCCCCCCCC(=O)N[C@@H](CCC(=O)NCCOCCOCC(=O)NCCOCCOCC(=O)N[C@@H](CCCCNC(=N)N)C(=O)N[C@H](CCC(N)=O)C(=O)N[C@@H](CCCCNC(=N)N)C(=O)N1CCC[C@H]1C(=O)N[C@H](CCCNC(=N)N)C(=O)N(C)[C@@H](CC(C)C)C(=O)N[C@@H](CO)C(=O)N[C@@H](Cc1c[nH]cn1)C(=O)N[C@@H](CCCCN)C(=O)NCC(=O)N1[C@H](C(=O)N[C@@H](Cc2ccc(I)cc2)C(=O)N[C@H](Cc2ccc(-c3ccccc3)cc2)C(=O)O)C[C@@H]2CCCC[C@@H]21)C(=O)O) [apelin polypeptide SEQ ID NO: 174]
9 | 6.29 nM | 1.9 nM | Tridecanoyl-[γGlu][AEEA][AEEA]RQRP[dR][NMeL]SHKG[Oic][Phe(4-I)]P[dBip]-OH (SMILES CCCCCCCCCCCCC(=O)N[C@@H](CCC(=O)NCCOCCOCC(=O)NCCOCCOCC(=O)N[C@@H](CCCNC(=N)N)C(=O)N[C@@H](CCC(N)=O)C(=O)N[C@@H](CCCNC(=N)N)C(=O)N1CCC[C@H]1C(=O)N[C@H](CCCNC(=N)N)C(=O)N(C)[C@@H](CC(C)C)C(=O)N[C@@H](CO)C(=O)N[C@@H](Cc1c[nH]cn1)C(=O)N[C@@H](CCCCN)C(=O)NCC(=O)N1[C@H](C(=O)N[C@@H](Cc2ccc(I)cc2)C(=O)N2CCC[C@H]2C(=O)N[C@H](Cc2ccc(-c3ccccc3)cc2)C(=O)O)C[C@@H]2CCCC[C@@H]21)C(=O)O) [apelin polypeptide SEQ ID NO: 211]
10 | 104 nM | 28.9 nM | Tridecanoyl-[γGlu][AEEA][AEEA][hArg][dQ][hArg]P[dR][NMeL][βAla]HKG[Oic][Phe(4-I)]P[dBip]-OH (SMILES CCCCCCCCCCCCC(=O)N[C@@H](CCC(=O)NCCOCCOCC(=O)NCCOCCOCC(=O)N[C@@H](CCCCNC(=N)N)C(=O)N[C@H](CCC(N)=O)C(=O)N[C@@H](CCCCNC(=N)N)C(=O)N1CCC[C@H]1C(=O)N[C@H](CCCNC(=N)N)C(=O)N(C)[C@@H](CC(C)C)C(=O)NCCC(=O)N[C@@H](Cc1c[nH]cn1)C(=O)N[C@@H](CCCCN)C(=O)NCC(=O)N1[C@H](C(=O)N[C@@H](Cc2ccc(I)cc2)C(=O)N2CCC[C@H]2C(=O)N[C@H](Cc2ccc(-c3ccccc3)cc2)C(=O)O)C[C@@H]2CCCC[C@@H]21)C(=O)O) [apelin polypeptide SEQ ID NO: 208]
11 | 8.54 nM | 1.32 nM | Tridecanoyl-[γGlu][AEEA][AEEA][hArg]Q[dR]P[dR][NMeL]SHKG[Oic][Phe(4-I)][dBip]-OH (SMILES CCCCCCCCCCCCC(=O)N[C@@H](CCC(=O)NCCOCCOCC(=O)NCCOCCOCC(=O)N[C@@H](CCCCNC(=N)N)C(=O)N[C@@H](CCC(N)=O)C(=O)N[C@H](CCCNC(=N)N)C(=O)N1CCC[C@H]1C(=O)N[C@H](CCCNC(=N)N)C(=O)N(C)[C@@H](CC(C)C)C(=O)N[C@@H](CO)C(=O)N[C@@H](Cc1c[nH]cn1)C(=O)N[C@@H](CCCCN)C(=O)NCC(=O)N1[C@H](C(=O)N[C@@H](Cc2ccc(I)cc2)C(=O)N[C@H](Cc2ccc(-c3ccccc3)cc2)C(=O)O)C[C@@H]2CCCC[C@@H]21)C(=O)O) [apelin polypeptide SEQ ID NO: 175]
